Data as given in the DeepSol protein solubility set.

Experiment: soluble on expression in E. coli; label from the status in PepcDB or PDB records
With “VSRAESNRTYSGQPVAERRVARRARFLDSALSVFAEKTYAHSSISDICAHAGLSRRQFYEEFGSREDILLALYDTIQDEARDAVLAANDRAPSRDPRTVAGTVMTAYIESVGTDERRARIIFVEVVGAGPRVEQYRLERRTQWAQLFETVTRTIDGGIVDPPERFEMVSIAFIGAVNDLAHHWSTASPRPSPSVLVDVLSTMLIALVTDQT” the “soluble on expression in E. coli” value was “not soluble”.
In the case of “MRQIFPGLDPNTYVQHPLHSSERMWPETNCYIDLWIEVLASKGLSPEAMFGFTLTQDFEGDQFTFFKVPLEDLEALYGVRATELAIFDKVEDHIATQLERGRICLIEMDSFYMPDTHGVGYQKEHGKTTVAINRLDLEKRELDYFHNAGFFHLSGEDFDGLFQHHLAETDPPFLPYTEFAKFADSNPSPAHIRKTAERLLKFHFSRRPSANPVRAFAKVFPAQVEKVADRPFGFFHKYAFNTLRQLGANFELAASHLEWLDKQGFSDARDHALKISEVAKTVQFQLARAVTRRKFDALATVLDPAADAWDGLMESLGEKLSDASEAA”, the “soluble on expression in E. coli” value is reported as “soluble”.
For “MRILVVRHGLPEDPRCFAYDPVQRLIAIGTGRGHIRIIGDAGVDYLLKHESGEPVLHMQFLVNEGGLITSCGTDSIHLWNYRQKTAEIVHTVQLSKESVSCIHLPVAGKWLFIGTDKGNVYFLCLNSFLLSPYVINWNKAIDLSCRVHPGPVRQLAVSPAENTKLLIVYDKGIVVQWNLGTREVDRYPLDPPIKSVNWHFDGRQILTGNVDGSISLYNHKKSTEAIQRTTPHGSGPCRPIQQVEWKHMSETESIIMFSGGMPTDDGLPMPALTILKGGKSATVLEMDWPIIQFIPLNQNIWNSIPQCPHSVAVLLKHDFMVLDLNQNGHPVIESPHAMNIHESPVTCMAYYSDCPLDLIGALTLVGTKQRNKEFSARSWPVTGGLGRECATGHQELVVTGHKDGSLKFWQETGEHLQILYKLKSSSHFERLEEMETSDKVSHAVKYIELCLESRQLLVAGISGQVTLFRFTKQEICGTIAVVNIPLLGNLSSNLPNNDFDKSPVPNGPGKEIRRQRKIVSRESTNSLDTSDSGDERIVPFKVRGAPVKRPPGFVPELACFVPWHSHAKVDQITTICLNSSYGIIAIGTSSGLALVDTTQCALIYSWTTNELYGSDPTPAIQLSMQLSDAASPLEIDEFENDDTLIYNTDTGNYTLRSTRNSLTPSSNGFLHPGEMPTRPKSAANSSNKSGGMMGLFRRNTAELAATIRERYQGNRSESATTDRPDVEHRGETPPPTPNEGNKVQKAGRSHSVKGSFIRRFAKSSSSKEKKEVKIEVDNQSNSGIERSRSFHSHISEEGDSQRESPSSGRQLNTSSPSTSSQSLERSMSTQPQESITSLSFIHSYSKKNDSKMSPCLWVGTSAGASLALNLILPEDRFTSTIVVAPSGTVVRLKGQVISQSFMDNTFCIISPASESYKEAAKEQSATSPDRSLLNRVNTKASLAPQYSSSIDSNDEISQILIVAAENEVKVVALPTFSQLYVQKFDEIPLVKATPTHIRGYPCLMCLSAAGQIIMLSLPSLRILQTSTIFPHSVEIDDPLCQKTAFSDHGLGVYMASQTEMEKYTMCSEIAEQTGESLGELFVPCEMPEQPKNNSFLKGVSSIFGGTPRNDPNDIDAILSENMGVKNSSGVNPMRSVARTIPGPSVQMDRAQAGGVSAGQAAAMALQNLNERTEKLNATVDATENLKNNAMSLSSRTGKLVEKYEKKKWYNF”, the “soluble on expression in E. coli” value was “not soluble”.
In the case of “MTKVTREEVEHIANLARLQISPEETEEMANTLESILDFAKQNDSADTEGVEPTYHVLDLQNVLREDKAIKGIPQELALKNAKETEDGQFKVPTIMNEEDALEHHHHHH”, the “soluble on expression in E. coli” value is reported as “not soluble”.
For “MGRVYYGGVERTYLYRGRILNLALEGRYEIVEHKPAVAVIALREGRMLFVRQMRPAVGLAPLEIPAGLIEPGEDPLEAARRQLAEETGLSGDLTYLFSYFVSPGFTDEKTHVFLAENLKEVEAHPDEDEAIEVVWMRPEEALERHQRGEVEFSATGLVGVLYYHAFLRGR”, the “soluble on expression in E. coli” value was “soluble”.
For “MGSDKIHHHHHHMEGEYRALNDISLESNVLFFGKESCLPNYFYPGNNVRKNYVIHYILKGKGTFSSANHPSIELKAGDIFILPKGIPCFYKADGKEPWTYLWIGFSGLKIKNILSRSLLLSQRYLHQVQNSHFTDSLLKLFDALHNPDTSTNNDLLIESLIYQTFYYLNSEYPAQNKTNIKSSIRLKTATKYLYDNFTDNNCSIYLLCNKLGVSRSYLYNIFKEGMNLSPQQFLIKLRMEEAKNKLKNSQNSIQEISTSVGYTDTFTFSKAFKKYSGFSPKNYRQIKSSEN”, the “soluble on expression in E. coli” value was “not soluble”.
For “MHHHHHHAMGIPGHAFSKIKVKQPVVELDGDEMTRIIWDKIKKKLILPYLDVDLKYYDLSVESRDATSDKITQDAAEAIKKYGVGIKCATITPDEARVKEFNLHKMWKSPNGTIRNILGGTVFREPIVIPRIPRLVPRWEKPIIIGRHAHGDQYKATDTLIPGPGSLELVYKPSDPTTAQPQTLKVYDYKGSGVAMAMYNTDESIEGFAHSSFKLAIDKKLNLFLSTKNTILKKYDGRFKDIFQEVYEAQYKSKFEQLGIHYEHRLIDDMVAQMIKSKGGFIMALKNYDGDVQSDIVAQGFGSLGLMTSILVTPDGKTFESEAAHGTVTRHYRKYQKGEETSTNSIASIFAWSRGLLKRGELDNTPALCKFANILESATLNTVQQDGIMTKDLALACGNNERSAYVTTEEFLDAVEKRLQKEIKSIE”, the “soluble on expression in E. coli” value was “soluble”.
With “GPGSMQRLFFRSTCARVRCADLRLKPPVSIPQVTFQTVAFSSSAAGAAVRSGAEGTNTTTKRRSGFGGGAGGGGPVKDRYPPPATDLGDPRRRLAVLVDASSVDPRVFRNTILPAALKVGTPVLIRIFSVQLSSEWEPLVAGSGGTRESATSTEPEWKTSGTANDGREEVSGAAGSRDSGAWCPPVEFFRVERFIPVPMQMEADANHIFDFRKQNQIEAVAFVCGEVDRGVFEGFLPNIAGNGFNQYVLDELGMAKEVLEDGRSEDGTPTVQK” the “soluble on expression in E. coli” value was “soluble”.
For “METKPYLIALDLDGTLLKDDKTISENTLHTIQRLKDDGHYVCISTGRPYRSSSMYYQQMELTTPIVNFNGAFVHHPQDDSWGRYHTSLPLDVVKQLVDISESYNVHNVLAEVIDDVYFHYHDEHLIDAFNMNTTNVTVGDLRENLGEDVTSVLIHAKEEDVPAIRSYLSDVHAEVIDHRRWAAPWHVIEIIKSGMNKAVGLQKISDYYGVPRERIIAFGDEDNDLEMLEFAGCGVAMGNGIDAVKQIANRTTATNEEDGVARFLKEYFSL”, the “soluble on expression in E. coli” value was “soluble”.
In the case of “NVVLKDASELLDEVVVIGYGAVKKSDLTSSISTVKGKEITETVTGNAMDALQGKINGVQVTSGGGPGAQPKVLIRGVTTVNGTDPLYVVDGMPVGTNINFLNSNDIESMEVLKDASAAAIYGTRASNGVILITTKKGMAGK”, the “soluble on expression in E. coli” value is reported as “not soluble”.
For “MEAVKTFNSELYSLNDYKPPISKAKMTQITKAAIKAIKFYKHVVQSVEKFIQKCKPEYKVPGLYVIDSIVRQSRHQFGQEKDVFAPRFSNNIISTFQNLYRCPGDDKSKIVRVLNLWQKNNVFKSEIIQPLLDMAAALEHHHHHH”, the “soluble on expression in E. coli” value was “soluble”.
With “GPGSMALVHTTYPQCLSLVEADTAEAEVQQALEDGANTLYFSHHFNYTDVPPSIAALREQLEVLHIDNNYPFTTISPRVTALTNLRWLNASYCSLRSVDSSISRLSKLERLTLNNNMLTWLPLDVWQLKALEELHIDNNQLNVLPGCLLFLPRLRVLTLENNPLYTHEEVNGAAAATYIPVQCSVDCSACCIRSRNYKVFVTFHTIVGHSDVPFVHVVCSDECAVHVRSRLEAYDRAHANQP” the “soluble on expression in E. coli” value was “soluble”.
With “MGSDKIHHHHHHMSKRQFGLIYISSYQARLFIVDLKKLAIIEQLSSVQFVQGGKKFEVYENELPRLTDALIGFKRKIAEYGIDNYKVYGNRQLLDKISARYLADQIKVRTGLEIEWLNGAQIAYYKIIAGMALPQFSELADDEFTYLLSMGSAMLNLTLFKGQHYLSTWNFALGPEEIEEMAAMTRDTPSDPIDIIGDYISRKLVSFKTIEKPTGKARIIIQHVFGRGEQSLRPQEKARVIDLKQFAGVYSDFREAPDQYLMEKYELDTDSLARMKPTIVLINQLVKIIKPHMMTLTQSSAITGLMIQEAARLKYRPDEYSTIVLTATKNIARRYESGGQHINLSNKFALHIFDRLAHAGMVDRRDRQLLEIAARLHDIGNFINFHNHYEHAAYIVGANQIIGLSDRENEMLLSILKHQDITNLNADEREYRHLDPALQVRVAKLAAILRLANSLDASRKQKISKIVVSIKDEKMLIVVTSKRDLTLERWVFEKNVNLAEAVFGMKIAMKQKRGK” the “soluble on expression in E. coli” value was “not soluble”.
In the case of “MKVVGVTSCIAGLAHTPMAAKALEKAGVKLGHDVKIEQQGAMGTIDEITPAEVSAADVVIIAADKVIDGEDRFKGKPVVRVKIGQCVANGEAVLSKVVAAIEARKQKEAN”, the “soluble on expression in E. coli” value is reported as “not soluble”.
For “MGSDKIHHHHHHMKIIHVIASIDPKHGGLQAVAMRLAAAQAGLGLDVNIVSYGDAAIEAQVKEIGRSIPHFENIHWHLLPPAGRLETLFCFRGRRMLKALLKDASFMHIHGVWEPFLLYASKLARAAGVPYCICPAGMLDHWSLGQRSWKKKIALMLCYRRMLNEAAFLHLLNVDEMAAVETLNFQARNLIIPNGVFAEEFDPLPARGHFRQKIALAHGRRYILFLSRLHIKKGIDILASAFAAICETYVDVDLVVAGPPGGAEGHFMHLVKKLNIRHRVFMVGAIYGKAKLEAMVDADCFCLPSRQEGFSMAITEALACGTPVVITDQCHFPEVGSADAGLIVSVDAAEVAKALASMLGNPARARTMGENGRRLVLEKFTWPAIAHATLEGYRLSALEAAAS”, the “soluble on expression in E. coli” value was “not soluble”.
For “MEPKLSKDTIIAAAFSLLEKSPTLEQLSMRKVAKQLGVQAPAIYWYFKNKQALLQSMAEAIEEHFQEPALCGEWYSDLLAFMENYYDLYQQFPCAVAIEIQTVPAYPQRLRHLNQMMGILREAGFSPEMTHLAVTSLQHLLFGMIMDATEEKQLVSQVLNGDDYLKEQVLHMKQYVSDNELTYMEESIQFRHSIHQKSAFIQAVKTYLDGLQADNTSSSK”, the “soluble on expression in E. coli” value was “soluble”.
In the case of “MAHHHHHHMPTYVGKEAPFFKAEAVFGDNSFGEVNLTQFIGKKYVLLYFYPLDFTFVCPSEIIALDKALDAFHERNVELLGCSVDSKYTHLAWKKTPLAKGGIGNIKHTLLSDITKSISKDYNVLFDDSVSLRAFVLIDMNGIVQHLLVNNLAIGRSVDEILRIIDAIQHHEKYGDVCPANWQKGKVSMKPSEEGVAQYLSTL”, the “soluble on expression in E. coli” value is reported as “not soluble”.
With “MGSDKIHHHHHHMMKTVNELIKDINSLTSHLHEKDFLLTWEQTPDELKQVLDVAAALKALRAENISTKVFNSGLGISVFRDNSTRTRFSYASALNLLGLAQQDLDEGKSQIAHGETVRETANMISFCADAIGIRDDMYLGAGNAYMREVGAALDDGYKQGVLPQRPALVNLQCDIDHPTQSMADLAWLREHFGSLENLKGKKIAMTWAYSPSYGKPLSVPQGIIGLMTRFGMDVTLAHPEGYDLIPDVVEVAKNNAKASGGSFRQVTSMEEAFKDADIVYPKSWAPYKVMEERTELLRANDHEGLKALEKQCLAQNAQHKDWHCTEEMMELTRDGEALYMHCLPADISGVSCKEGEVTEGVFEKYRIATYKEASWKPYIIAAMILSRKYAKPGALLEQLLKEAQERVK” the “soluble on expression in E. coli” value was “not soluble”.
With “SLSFTLEEEDITGTWYVKAMVVDKDFPEDRRPRKVSPVKVTALGGGNLEATFTFMREDRCIQKKILMRKTEEPGKFSAYGGRKLIYLQELPGTDDYVFYCKDQRRGGLRYMGKLVGRNPNTNLEALEEFKKLVQHKGLSEEDIFMPLQTGSCVLEH” the “soluble on expression in E. coli” value was “soluble”.
